Reference: a protein production outcome set (Wang et al. 2014)

Assay: label from the status in PepcDB records

Sequence | protein production
MSGISSLGGRVGVTILEILIFSAGLLLLIKGSDIFVEAATRIAEAFKVSEFLIALVLASVATTLPEVTVSAISSYRGNSGIAIGNAVGSALANIALILAISAMIMPLNVDKIASENSLIMVGVTFYAWLLMSNGEISRIEGLTLVLIYAAFLYYLYRKHVKLEEVEKKSRCNVTRDVLILFLSGGMVILGAELVVDSAVKIARAIGIPEVVIGVTLVSIGTSLPEFANSLTATLKKIPNVSVGNIIGADILDILMVIGIASMIRPIRVDPSIVKIVMPITLLVMIILTVSLFRNNKIGRKTAVTLLIIYSAFIYLLTQGKVYIPG | failed
MSGKNIVFLVLLLFIPVSLAAHYLEWGDLIVFITAGLAILPLAAWMGAATEEIAVVVGPTLGGLLNATFGNATELIIALVALNAGLVNVVKASITGSIIGNLLLVMGLSMLLGGLRHKEQTFQPIVARVNASAMNLAVIAILLPTAMNYTAQGIGEETLQYLSVAVAVVLILVYILTLIFSMKTHAYLYDVGVAEIETEENPHPKPNILLWSGVLLVCTLLVAVESELLVDALEVATSQLGLTALFTGVILVPIVGNAAEHATAVTVAMKDKMDLSVSVAVGSSMQIALFVAPVLVIAGWILGQPMDLDFQPFELVAVVVSVLIANSISSDGKSNWLEGTLLLAAYTVLGFAFYFHPDVGGLG | failed
MSGKRVAKNTLFQIVKMLITTVVNLYMVRVLLHQLGVEGYGIFNLIAGVLALMLFLNGAMTTSSQRYLSFYSTQQLEKRTSVFATTKSLHIVVAMIIFLLLFSLQTFIFEDLINIPVSVVSSAQSLYQIMAVGVLASVVTVPFNAQINANEDLGIDAVFSVFESLFKLIAAFLIVFFENQLVSLGALFVLVSWTMLIVKVVYCRIKYEECNLLNFKLDIALFKEMIGFTSWNSFGAICGVARVQGLAVVLNHFFGVYINAVYAIAVQVNGKLKEFSINIMKAFNPRIVKAESKDNREEMLHLSMLASRFSLLLYSVIALPIFFETDFMLSIWLGDYPDGVLTFIKLFLVLAFVNLTTVGLQTAIQATGDVKAYQSTIGSVLLLTVPLAYIFLSLGYPPYTVIVVSIFMEVVSCGMRLAFLKLKAGLSIKKYILFVINKALQVLIPTIVVLFSLTISFEQSILRFISTTLVSFGMISFLTYWLVLGVEEKKMIRLKV | not failed
MSGPEAEQQSVVLYDIEDKPPLGKAIPLGIQHVLAMFLGNVAPPLILAGAVGSVTGETTFLVQMALIVAGIATIVQAYPVGPVGARLPVVMGTSFAFLGPLIGIGNQFGIAAVFGASLLAAPVEVIMGVSFDRFRRFFPPLVTGIVVMLIGLTLIPTGMNYAAGASAGPSAEGYGSFVNLGLAGLVLIVTVGLNQFFEGFLRVISVFVGIIVGYLAALALGVVDLSAVAAAGWVTVPVPLKYGLAFEPSAVVTVAFLYIITGMETIGDISGTVSATGRNATREEIRGGLVADGVMSVFGAVFNALPNTSFSQNVGLVNFTGVASRYVAGIGGVVLLALGFIPKVGAVVSAMPDAVLGGGALILFAMIFSSGARLITQNVELDHRNSTILAMSMALGLGVAFRPEILQNFPSEVQTLFGSALVTGGMAALILNIVFPGGSVGTGPTEYTAGLEPDPVETGAGAPPVDDD | failed
MSGSLRDSAIDHFNKTISLMQKRQNKEALEELEKAEEAAKQAKANDILIHTVNLRGQLMLTLGALDEVLRICGFASNFFADILLKDPENEFFQQSFQMNLNNLGTTGNFYHNTGRFPQAKKAYETGLGITLKLLQSSPQDDFLQNYTGTTLNNLGNLLSDMGRIEDAKNRYEKALEMREKLLEKDPENVAYQSYVGGTLNNLGNLLKNMGRIEDAKNRYEKALEMREKLLEKDPENVAYQSYVAMTLNNLGNLLKNMGRIEDAKNKYEKALEMREKLLEKDPENVAYQSDVAMTLNNLGTLLSDLGKIEDAKNRYEKALEIYEKLLENDPENVAYQSYVAMALNNLGNLLKNMGRIEDAKNRYEKALEMREKLLENDPENVAYQSDVAMTLNNLGTLLSDMGRIEDAKNRYEKALEIYEKLLEKDPENIAYQSDIGGTLNNLGTLLSDMGRIEDAKNRYEKALEIYEKLLEKDPENIAYQSEVGGTLNNLGTLLSDMGRIEDAKNRYEKALEIYEKLLEKDPENIAYQSEVGTMLNNLGNLLSDMGRIEDAKNRYKKALEIYEKLLEKDPENIAYQSYVGGTLNNLGNLLSDMGRIEDAKNRYKKALEIYEKLLEKDPENVAYQSYVGTMLNNLGTLLSDMGRIEDAKNRYKKALEIYEKLLEKDPENVAYQSYVGGTLNNLGNLLSDMGRIEDAKNRYKKALGIYEKLLEKDPGNLAYHSEVNTIQCKVKKVKGSGRC | failed
MSGTGEVRGMRAARIAAGAVIPGELALAVCLAAGVRPPVWATAAAEAVALAVLMLEAWVLRSLYASRRAQGLEPPAALRAAVRAVVPARVRRLLVHELRAAASLGRWAARRKHGVRPGDHVAGYTGPQTAMMYGLIFVSVIETVALAVLIPWPVVHRVLLVLDVYGVLMMLGLHAACVTRPHVARPDGSLRIRYGALFDLAVPADAVASVRVDRCYPQGRLVTLSEKGVLDLIVAGQTTVTLELTRPLVFTRPLGGRGEARTIRFHADDPRALVGALRRPALT | failed
MSGVILGRYWGGLSQLIYVIIGAAGVPWFADMSGGPEVLLGATGGYLLGFILAALLLGHFVDRHIRARKFTPMLGLMTIANFGLIYIPGLVVLGLWSLKTQGTLPGPWELLVMGLLPFIPGDILKITGAAALTRAITPKEPYGEEIDIQKAEGWRVP | failed
MSGVTSEPIAMDATRFQHTPYYCEENVYLLCKTLCENGVAEATCSDLFVVFISNEKKQVPLWHQKASTRADGVVLWDYHVICVQRKKESDSEPLVWDLDSTLPFPSPLASYVTETIQPSFQLFAEYQRFFRIVHAPLFFKHFASDRRHMKEPDGSWTAQPPPYEPIVAQDGILHNLSEYIAMSGADTLSSLDPETVTAAISQKLGVVVSHTQLQDLFTKLP | failed
MSHAHKKHKENAPKSLNFYVITISTSRYEKLLKKEPIVDESGDIIKQLLIENGHKIIGYSLVPDDKIKILKAFTDALSIDEVDVIISTGGTGYSPTDITVETIRKLFDREIEGFSDVFRLVSFNDPEVKAAAYLTKASAGIIGKKIVYLLPGSPDAVKLALKELILPEVGHLVYLVRS | not failed
MSHKCFKDESFETRISCPLCQKELIMTWQRDNIPYFGEIMYVSAKCPCSFRFADTMILSSKEPMRYELSVESPEDLDARVIRSTSGTIRIPEMGIVVEPGTVSDSYITNIEGVLQRVQNVLMTASRWVREDEEKFARSQELLCMLNEVIEGRRAITVIIEDPLGNSAIISKKAVASKLSKEEAEKLNTGMIVFDVDKSELAHDISDNVKPLGGDLEHHHHHH | not failed
MSHLRIPKNWTIQRSTPFFTKDNVPEALLTHHNTAVDVFGQICVMEGVVTYYGFANSEATEPEIKVVINAGQFATSPPQYWHRIELSDDAQFNINFWSDQDKSGKKMFNTKLEHHHHHH | not failed
MSHVSDYRPCFLIPCYNHGSTIADVVASLSSFDLPVLVVDDGSNEDTKQALSALSEQGLIKLISLSENQGKGGAVMAGLHQAHQLGFTHTIQIDADGQHDLEALPKLLSASETKPDNLISGQPIYDESVPKARLYGRYATHIWVWIETLSLSIKDSMCGFRAYPVAKTVAVLNKYNIGKRMDFDIEILVRMYWEGVDIDFVPTRVIYPEGGISHFDALWDNVKISWMHTRLFFGMLPRIPSLLARKRRHTDDSNAHWSKRKEQGTILGIKTLLAVYRLFGRKAFDLILKLVMRYYHFTGKSAREASEIYLQNLQRYAAQQNIALPKQLDSYHHLLSFGRTMLDKLAAWQGDFNVDNLTIHGQHHFEEMAQKKQGVLILGSHLGNIELCRALGRRHSHVKINALVFTQHAEQFNAVMKAVNPNSELNLIQVSSMGPDTAILLQQKIEQGEWVVIVGDRTSTSKENRVVWADFLGKPAPFPQGPFMLASVLKAPVYLLFGLRDDEANTPHFNVYFEHFSDQITLPRKERQQALEHVVQQYAHRLEHHTLQAPLQWYNFFNFWTLSNQPHDKQQ | failed
MSIEERLEALEKEIQKMKDIEEIKKLKGQYFRCLDGKFWDELETTLSPNIVTSYSNGKLVFHGPKEVTDYFKKAMPREEISMHMGHTPEITIDSETTATGRWYLEDKLIFTEESKYAGSGVNGGAFYTDKYEKVDGKWYILETGYLRVYEEHFMRDPKIKITMNMHKTK | not failed
